Source: the DeepSol protein solubility set

Assay: soluble on expression in E. coli; label from the status in PepcDB or PDB records

Sequence | soluble on expression in E. coli
MSLTERLSPVEIMGALVAFPTVSRDTNLPLVDWVETYLAGHGITAHRWVDPEQPHKAALFAHVGPWEEGAVVLSGHTDVVPIDGQPWDSDPFTVVERDGKYFGRGTCDMKGFDALAIWALVEGRYRDLKRPLQLALSFDEEVGCTGAPPMIVEMQNHLPKGSAVIVGEPSMMQAVTGHKGGFGYDTRVLGFEVHSSIMHTGVNAIMAAAPLIDWANHRNAENRAATPSALAAMFDPPWTTCHVGMISGGTAHNITAKECRFAMDFRIVPGEAKERWRDAYFAVAREVEAQMQAVHPEARIDLSEQFHVPPLVPEQEGEAEMLVRALTGDNAGHVVSYGTEAGQFQEAGYSAVICGPGDIAQAHQPNEFITVAQFDAGHGFMARLLDRLSEGHHHHHH | soluble
ASGTTLNWTGRMLGNGTLVKEGAGTLALSGFNAHGGTVVNAGTVQISNDYGLGNGALTLNNSRLASTADIYAEAAATVNGNGTFDTANGTTLQWMGDIGGAGALVKTGAGTLLLGGDSLY | not soluble
MGSDKIHHHHHHMDSYKQYIKEALPNLSIHSYKQNEEGWDNVAIIVNDELLFRFPRKQEYAMRIPLEKELCTLLSCSLHEIEVPKYHLFYEKNTDAIPLCSYYTLIHGEPLKTEIVTTLEKQERKALITQLATFLAALHSIPLKSVTALGFPIEKTLTYWKELQAKLNEYVTNSLTSFQKSTLNRLFENFFACLATSKFQNTIIHADFTHHHILFDKQNKTISGVIDFGDAQIGDPAFDFAGLYYDFGHEFTTSVYEQYSTLTSHHDPLLIHRITSFYQYSPLLHNMIYNFETKNELEFLASIEQLKVILQG | not soluble
KPKFFYIKSELNGKVLDIEGQNPAPGSKIITWDQKKGPTAVNQLWYTDQQGVIRSKLNDFAIDASHEQIETQPFDPNNPKRAWIVSGNTIAQLSDRDIVLDIIKSDKEAGAHICAWKQHGGPNQKFIIESE | soluble
MPSIRVVNLKKYFGKVKAVDGVSFEVKDGEFVALLGPSGCGKTTTLLMLAGIYKPTSGEIYFDDVLVNDIPPKYREVGMVFQNYALYPHMTVFENIAFPLRARRISKDEVEKRVVEIARKLLIDNLLDRKPTQLSGGQQQRVALARALVKQPKVLLFDEPLSNLDANLRMIMRAEIKHLQQELGITSVYVTHDQAEAMTMASRIAVFNQGKLVQYGTPDEVYDSPKNMFVASFIGNPPTNFLRDFSVSVENKQTILKRDDVIIKLPEPVDVKLKEVVVGIRPEHCRISRERVENSIPGVVYVVEPLGRDIIVNVKTEKGEIIKVFGDTGKAPQPGENVFLVPDLRKIHLFNPETEETIL | soluble
MGSDKIHHHHHHMSKSVDETVFDFFELLLHEDDSAFSASPIKSQASATSAFDVSIKTEAQQLNDAILAEHERSKVDARASIVPEAQLARAKSIVTVSTKENAEPLVNKQALERLLAPVLKTQAPDIPKPTELNEQPLPLPKPVEAIAVTNVVKPADVESQQVEIISTAPETQVGFAPPSVTKDLQEVLDDEFQVLFFKVAGLTLAVPLVSLGGIVKVERINHIIGRPSWFLGVQTHREEQLNLVDTCAWVMPEKYTDKLAQSVNYQYLVLLEGSNWGLACESLLNAVKIHKSQVNWRSKAGKRPWLAGVVKEQMCGILHVQALVQMLDAGLGCQDSIG | not soluble
MGHHHHHHGGHMSLRTEEEMFQLIMDVAKQEEHIRAVGMVGSRTNVKAPKDSFQDFDIVYIVEPCAEFFETATWIAKFGQPLIMQRPKEMTLFPTEPKTRETFLMLFEDGQRIDLTLCPLAEKDNWHEGDSLAIILLDKDENLPPLPVASDKNYTVTVPDQQQFNDCCNEFWWVSTYVVKGLCRNELFYAVTHLYEYCQQELLRLLSWQAAWQEPEPISVGKQFKYLKNYVTPDTMDQLASLLDFSSKEACWNSLIKTQAFFDVVAQDFAKMAQFTYHLQEAKKVTEYTNSLRLKDLQGKEGGS | not soluble
MEGLINALKYLAEHEPIDNFEEIRTRNSPIELPSGLSNFEQNIFLKENLSPKLQNDDSLKTHYWIIREWGGIKSFKQSAENSQLIRQFLSELNSGKLSSGLLKISSLSKLASFIDCERFAIYDSRAIFSLNWLLFKFTNADLFFQPQGRNRELEIRNMNVLFHFSDIKPNYRKPDVSFHQYCGLLQDLAKQVYGKQAKPYHIEMLLFKIATTWICADMDQLIKFDCLRNQDFQTA | not soluble
MNEVLELKEELLQIKNNNYAVPEDVDAYPYAQWMLDYIGSPDAELRDDLIYSTLHTWITNDVFRQKELRGLMLQAISPDYLFYKIGEKGTDSVFKRAFSVLIPPLILSVHEREPLLSEEQLYSVAEQVLEYVYLEEDVRGYVEGKGWAHSTAHAADALDALARTIQNREFSYAILAAVRQKVRLSDYVYVHFEDERLVKPIMSLHNQKLLTEEEWSNWLHSIATVEDIRHPQHAILVQNIRSFLRSLYFRVLETEGSTAFTDDILETLKGLRRY | not soluble
GTIVITGTITDQTCTIEDPSPGYIKVVHLPTISKSALKNAGDVAGRTRFDIKLKDCPTTVNTLKLYFEPGPTTDYGTKDLKAYKQAWYVDAATLLKSPPSVTEAKGVQIRLMNLNGKQIPMGETEPNQHAAAFSGTMQAGQAKKSFTLHYLAGYVKKASGEVEATMLTTYVGFSVVYP | not soluble
MSLTRRATSLLPPNATALERRLADTNARISDIPVDIGALMDPDAIPLRFLPWLAWHLGVETWKDYWPEQVKRARVKAAIRIARKKGTAAAVREVCASFGANVAMREWFEKTPKGRPGTFEILMTVGARDGIPATAEYVADIIAEVDRAKRGTAHYTFTQGFGATGTQRIGAGARVAVYRRLSLTDIEGHHHHHH | not soluble
KFFNLFLKKGNKINPLIGNAGVSAVPDSARISQVIGLEYDPTNYLLMHAM | not soluble
MGSDKIHHHHHHMEYQTRQWLEEALFDLLATKKSLHNISIAELSEHAQIARRTFYRYYHSKEQVLTNYLDRLIQDYIIELQTEKLTNFEDLVNLFFQYWSQYTESLKILQEANLLVLILQRYYDKLPAAYTTVMAPWHITNSDQRQISYDSRFIIGGLYSIFDEWLKTDHQTMPVNELVTTALNTIKRMKDS | not soluble
MGSDKIHHHHHHMHEDKNDIFESIDTEDFDNKTEEECLELVRKNGLNLIYIKNQTEEICLEAVRQNCNAIKCVQNQTEKICIEAVKQDWRMLEFVEEPTEEICMLAINQDGTALKYIENQTEELCLRAVEKNGAALEYVKEQTEEICIEAVRNSEFGLARVKNQTEKICMEAVKHCSYNLKWVENQTEEICMEAVRQNGLDLKFVKNQTETICLRAVRQNGMALEFVKEQTVGICLKAVRQYGMALKFVKEQTEEICTEAIKQDKRALSFVKGDKEKYKALYDNNEPFAKRYVRNVIEKENRALIKKGEENAKIKIAGKLYDRGMSFEDISDIVEIEISKLKVSLGVF | not soluble
MGSSHHHHHHSSGRENLYFQGHMSANVQEAANAAIEPASFVKVPMPEPPSSLQQLINDWQLIKHREGGYFKETDRSPYTMEVEKPVNGGSGNTEMVTRNQSTLIYYLLTPDSPIGKFHKNINRIIHILQRGKGQYVLVYPDGQVKSFKVGFDYKNGEVSQWVVPGGVFKASFLLPNEEFDNGFLISEVVVPGFDFEDHTFLKGEDELKHLVGPEKAAELAFLA | soluble
MSIATQEFDAIVIGAGGAGLRASFQLSQSGFKTAVVSKVFPTRSHTVAAQGGIAAALGNIEFDDGLPSDDWKWHMYDTVKGSDYIGDQDAIEYMCEHAPQSIIELEHMGMPFSRLKNGKIYQRAFGGMSRNYDPANQAERTCAAADRTGHALLHTLYQGNLAHKTDFYTEWFAVDLVKADDGSIAGVIALCIETGETVFLKAKITILATGGAGRIYESSTNAYINTGDGMGLALRAGLPLQDMEFWQFHPTGIAGAGVLVTEGCRGEGGVLRNKDGERFMERYAPNAKDLACRDVVSRASQQEIMEGRGDTFSGTSCVWLDLTHLGEDVINERLPTVRELGRTFAGIDPVEKPIPVVPTCHYQMGGIPTNKHGQVITQVDGKDKVIGGLYAVGECASVSVHGANRLGSNSLLDLVVFGRAAGMHAEQSLKEGMPMKEVSQENIEKATARITKWDTSEQRGCKEKISELRKELQRVMQQYFSVFRQESTMKEGLDKLFNIRERLDNAVLEDNSRIFNMMRIEALELDNLVLTAIATAKLALERKESRGAHSRVDYPERDDKNWMKHTLYFLEGDRTSLRDVNMSPTKVKAFQPAERKY | not soluble
NTFYEITLEDESVLLDEVVAIGYGTQSKATVTSGVVSVKKAELMSSVSASPLNNLQGKVAGLDIRQTTGQPGAQPVVLIRGGSTDPANDSPLFVIDGVVRSNMNGLNQEDIESMEVLKDAASAAIYGAKAANGIILITTKQGSSKD | not soluble
